Assay results as given in PMC3597662.

Target: T1, Cbp2Hb wild type (Hyperthermus butylicus, UniProt A2BLH2 1-103)
T1 sequence: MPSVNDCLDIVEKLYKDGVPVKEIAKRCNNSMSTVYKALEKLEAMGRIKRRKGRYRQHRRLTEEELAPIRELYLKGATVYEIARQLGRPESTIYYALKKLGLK
Experiment: NMR

B1: CRISPR-1rHb 25 bp single repeat (dsDNA)
DNA 1: CTTGCAATTCTCTTTTGAGTTGTTC
DNA 2: GAACAACTCAAAAGAGAATTGCAAG
binding result: binds
